Results published in US9057727B2, “Screening methods using G-protein coupled receptors and related compositions” (The General Hospital Corporation, priority 2007, dated 2015).
pEC50: −log10 of the molar value. Ends that are not written are not given here.

Experiments:
[1] = system: MC3T3-E1 cells; assay: cAMP in MC3T3-E1 cells, dose-response; format: cell-based; conditions: Table 3; read-out: dose-response cAMP in MC3T3-E1 (EC50)
Experimental: In the 1-30 scaffold, Gly, Ser, Leu, Asn, Gln, Trp, Glu, and Lys were substituted at position 29; Gly, Ser, Leu, Asn, Asp, Trp, and Lys were substituted at position 30; and Ser, Leu, Asn, Val, Trp, Glu, and Lys were substituted at position 31. […] These peptides were tested for cAMP activity in MC3T3-E1 cells.

[2] = system: MC3T3-E1 cells; assay: cAMP screen of EALK-PTHrP(1-31)/(1-34) variants (% parent); format: cell-based
From the text: FIGS. 32A and 32B are graphs showing the effects of amino acid substitutions in the 29-31 region of EALK-PTHrP(1-31) (SEQ ID NO:94) (FIG. 32A) and the 29-33 region of EALK-PTHrP(1-34) (SEQ ID NO:112) (FIG. 32B) on induction of cAMP activity in MC3T3-E1 cells. Substitutions at position 29 for EALK-PTHrP(1-31) were G^29 to S^29 (SEQ ID NO:95-96), L^29 (SEQ ID NO:176), and N^29 to K^29 (SEQ ID NO:97-101). Substitutions at position 30 for EALK-PTHrP(1-31) were G^30 to D^30 (SEQ ID NO:102-106), W^30 (SEQ ID NO:177), and K^30 (SEQ ID NO:107). […] Substitutions for EALK-PTHrP(1-34) A^30 to A^33 (SEQ ID NO:113-116) and EALK-PTHrP(1-28)/PTH(29-34) (SEQ ID NO:117).
To optimize the activity of the EALK-PTHrP peptides, we generated EALK-PTHrP([…]) and PTHrP(1-34) variants with substitutions in the 29-33 region. In the 1-30 scaffold, Gly, Ser, Leu, Asn, Gln, Trp, Glu, and Lys were substituted at position 29; Gly, Ser, Leu, Asn, Asp, Trp, and Lys were substituted at position 30; and Ser, Leu, Asn, Val, Trp, Glu, and Lys were substituted at position 31. […] A predicted advantage of these longer-length peptides, relative to the PTHrP(1-30) scaffold, is that they will have longer a longer half-life in circulation due to slower clearance. The C-terminal substitutions were thus designed to provide the added chain length, but to avoid increasing R^0 binding affinity, which occurs when the native PTHrP(29-34) region (SEQ ID NO:186) is installed. These peptides were tested for cAMP activity in MC3T3-E1 cells.

[3] = system: LLCPK1-B64 cells or SaOS-2 cells; assay: cAMP screen of substituted PTHrP(1-28) analogs (% parent); format: cell-based; conditions: parent PTHrP(1-28)NH
Experimental: Alanine substitution at position 18, 22, 25 and 26 increased activity in at least one cell type. These positions were further substituted to various types of amino acids, and cAMP activity was analyzed in LLCPK1-B64 cells (FIG. 27C) or SaOS-2 cells (FIG. 27D). Cells were treated with analogs at 3×10^−9M in the presence of IBMX for 30 minutes at room temperature. Responses for each analog were normalized to the response for the parent (native) PTHrP(1-28) peptide. Alanine substitutions were A^15 to A^17 (SEQ ID NO:152-154), A^18 (SEQ ID NO:34), A^19 to A^21 (SEQ ID NO:155-157), A^22 (SEQ ID NO:39), A^23 to A^25 (SEQ ID NO:158-160), A^26 (SEQ ID NO:46), and A^27 to A^28 (SEQ ID NO:161-162). Substitutions at position 18 were A^18 (SEQ ID NO: 34), G^18 (SEQ ID NO:163), S^18 (SEQ ID NO:35), M^18 (SEQ ID NO:36), L^18 (SEQ ID NO:164), F^18 (SEQ ID NO:37), N^18 (SEQ ID NO:165), E^18 (SEQ ID NO:38), and K^18 (SEQ ID NO:166). Substitutions at position 22 were A^22 (SEQ ID NO:39), G^22 (SEQ ID NO:167), and S^22 to K^22 (SEQ ID NO:40-45). Substitutions at position 26 were A^26 (SEQ ID NO:46), G^26 (SEQ ID NO:168), S^26 (SEQ ID NO:47), L^26 (SEQ ID NO:169), N^26 (SEQ ID NO:48), W^26 to E^26 (SEQ ID NO:170-171), and K^26 to R^26 (SEQ ID NO:49-50). Substitutions at position 25 were G^25 to S^25 (SEQ ID NO:172-173), L^25 (SEQ ID NO:51), N^25 (SEQ ID NO:174), W^25 (SEQ ID NO:52), E^25 (SEQ ID NO:175), and K^25 to R^25 (SEQ ID NO:53-54). […]

[4] = molecular target: T1, human PTHR, G protein-coupled conformation (RG) (Homo sapiens, UniProt Q03431); assay: Competition binding to RG conformation of hPTHR (COS-7 membranes, GαsND, 125I-[Aib1,3,M]PTH(1-15) tracer); conditions: parent PTHrP(1-28)NH
T1 construct: expressed in transfected cells; host or cells: COS-7, transient (Fugene-6); membranes
T1 sequence (Q03431 27-593): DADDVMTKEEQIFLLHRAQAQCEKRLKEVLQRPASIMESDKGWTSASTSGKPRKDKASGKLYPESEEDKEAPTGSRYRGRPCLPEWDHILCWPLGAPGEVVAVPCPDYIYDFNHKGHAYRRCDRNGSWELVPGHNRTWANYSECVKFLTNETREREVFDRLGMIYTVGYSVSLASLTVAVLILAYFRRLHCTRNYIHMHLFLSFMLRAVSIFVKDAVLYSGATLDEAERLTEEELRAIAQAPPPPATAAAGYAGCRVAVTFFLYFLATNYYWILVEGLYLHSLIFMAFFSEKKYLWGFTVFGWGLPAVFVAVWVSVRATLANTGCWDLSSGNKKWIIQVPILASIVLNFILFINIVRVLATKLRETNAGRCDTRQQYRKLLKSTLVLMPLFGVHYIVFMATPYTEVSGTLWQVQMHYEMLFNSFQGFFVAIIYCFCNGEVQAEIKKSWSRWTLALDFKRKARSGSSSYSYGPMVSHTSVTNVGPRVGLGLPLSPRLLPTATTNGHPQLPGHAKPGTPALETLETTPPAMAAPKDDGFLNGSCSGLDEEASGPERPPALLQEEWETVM

[5] = molecular target: T2, human PTHR, G protein-uncoupled conformation (R^0) (Homo sapiens, UniProt Q03431); assay: Competition binding to R0 conformation of hPTHR (COS-7 membranes, GTPγS, 125I-PTH(1-34) tracer); conditions: parent PTHrP(1-28)NH
T2 construct: expressed in transfected cells; host or cells: COS-7, transient (Fugene-6)
T2 sequence (Q03431 27-593): T1 sequence (Q03431 27-593)
Experimental: Membranes were prepared from COS-7 cells transfected with the hPTHR alone. GTPγS ([…]) was added to the binding reactions so as to functionally uncouple receptor-heterotrimeric G protein complexes, thus enriching for the R^0 (and R) conformations, relative to RG.
Reactions contained a total membrane protein concentration of 20 to 100 μg/mL, and a total radioactivity concentration of approximately 150,000 cpm/ml. Unlabeled peptide ligands and/or GTPγS (Sigma-Aldrich Inc. St. Louis, Mo.) were added to the reactions as indicated.
Membranes, tracer radioligand, and various concentrations of unlabeled ligands and/or GTPγS were incubated in the wells for 90 minutes, following which, the reaction plates were processed by rapid vacuum filtration to separate bound from free radioligand, as described above. […] For both radioligands, the non-specific binding was determined in reactions containing a saturating concentration of the unlabeled analog of the radioligand. The specifically bound radioactivity was calculated as a percent of the radioactivity specifically bound in the absence of a competing ligand or GTPγS.
To assess the capacities of various unlabeled peptide ligands to bind to the G protein-uncoupled and G protein-coupled PTHR conformations (R^0 and RG, respectively), membranes were prepared from transiently transfected COS-7 cells and the following assay conditions.

[6] = parent E18,A22,L25,K26-PTHrP(1-31)OH

Substance	screen human PIR RG (% parent) [4]	screen human PIR R0 (% parent) [5]	screen cAMP (% parent) [3]	further results
AVSEHQLLHDKGKSIQDARRRAFLLKLIAEI [A18, 22, L25, K26-PTHrP(1-31)NH, A18,22,L25,K26-PTHrP(1-31)]	–	–	–	pEC50 [1]: 9.70
E18,A22,L25,K26,A33-PTHrP(1-34) (AVSEHQLLHDKGKSIQDERRRAFLLKLIAEIHAA-OH) [E18, A22, L25, K26, A33-PTHrP(1-34)OH]	–	–	–	screen cAMP (% parent) ([2]; parent E18,A22,L25,K26-PTHrP(1-34)OH): 196 % parent
A18,L22,K26-PTHrP(1-28) (AVSEHQLLHDKGKSIQDARRRLFLHKLI-NH2) [A18, L22, K26-PTHrP(1-28)NH]	177 % parent	160 % parent	350 % parent	–
AVSEHQLLHDKGKSIQDARRRAFLHKLIAE [A18, 22, K26-PTHrP(1-30)NH, A18,22,K26-PTHrP(1-30)]	–	–	–	pEC50 [1]: 10.24
E18,A22,L25,K26,N30-PTHrP(1-31) (AVSEHQLLHDKGKSIQDERRRAFLLKLIANI-OH) [E18, A22, L25, K26, N30-PTHrP(1-31)OH]	–	–	–	screen cAMP (% parent) [2, 6]: 189 % parent
A18,W22,K26-PTHrP(1-28) (AVSEHQLLHDKGKSIQDARRRWFLHKLI-NH2) [A18, W22, K26-PTHrP(1-28)NH]	115 % parent	136 % parent	267 % parent	–
E18,A22,L25,K26,G29-PTHrP(1-31) (AVSEHQLLHDKGKSIQDERRRAFLLKLIGEI-OH) [E18, A22, L25, K26, G29-PTHrP(1-31)OH]	–	–	–	screen cAMP (% parent) [2, 6]: 206 % parent
A18,26,W22-PTHrP(1-28) (AVSEHQLLHDKGKSIQDARRRWFLHALI-NH2) [A18, 26, W22-PTHrP(1-28)NH]	120 % parent	126 % parent	188 % parent	–
A18,26,S22-PTHrP(1-28) (AVSEHQLLHDKGKSIQDARRRSFLHALI-NH2) [A18, 26, S22-PTHrP(1-28)NH]	148 % parent	133 % parent	229 % parent	–

Continued, in another order:

screen human PIR RG (% parent) [4]	screen human PIR R0 (% parent) [5]	Substance	screen cAMP (% parent) [3]	further results
132 % parent	31.9 % parent	E18,S22,A26-PTHrP(1-28) (AVSEHQLLHDKGKSIQDERRRSFLHALI-NH2) [E18, S22, A26-PTHrP(1-28)NH]	119 % parent	–
140 % parent	53.7 % parent	E18,N22,A26-PTHrP(1-28) (AVSEHQLLHDKGKSIQDERRRNFLHALI-NH2) [E18, N22, A26-PTHrP(1-28)NH]	171 % parent	–
